Laboratory results published in US20140271478A1 (University of California, published 2014).

T1: mouse integrin β8 (mouse, UniProt Q0VBD0 22-767)
T1 construct: whole, on cells; also called mouse β8; itgb8
T1 sequence (looked up): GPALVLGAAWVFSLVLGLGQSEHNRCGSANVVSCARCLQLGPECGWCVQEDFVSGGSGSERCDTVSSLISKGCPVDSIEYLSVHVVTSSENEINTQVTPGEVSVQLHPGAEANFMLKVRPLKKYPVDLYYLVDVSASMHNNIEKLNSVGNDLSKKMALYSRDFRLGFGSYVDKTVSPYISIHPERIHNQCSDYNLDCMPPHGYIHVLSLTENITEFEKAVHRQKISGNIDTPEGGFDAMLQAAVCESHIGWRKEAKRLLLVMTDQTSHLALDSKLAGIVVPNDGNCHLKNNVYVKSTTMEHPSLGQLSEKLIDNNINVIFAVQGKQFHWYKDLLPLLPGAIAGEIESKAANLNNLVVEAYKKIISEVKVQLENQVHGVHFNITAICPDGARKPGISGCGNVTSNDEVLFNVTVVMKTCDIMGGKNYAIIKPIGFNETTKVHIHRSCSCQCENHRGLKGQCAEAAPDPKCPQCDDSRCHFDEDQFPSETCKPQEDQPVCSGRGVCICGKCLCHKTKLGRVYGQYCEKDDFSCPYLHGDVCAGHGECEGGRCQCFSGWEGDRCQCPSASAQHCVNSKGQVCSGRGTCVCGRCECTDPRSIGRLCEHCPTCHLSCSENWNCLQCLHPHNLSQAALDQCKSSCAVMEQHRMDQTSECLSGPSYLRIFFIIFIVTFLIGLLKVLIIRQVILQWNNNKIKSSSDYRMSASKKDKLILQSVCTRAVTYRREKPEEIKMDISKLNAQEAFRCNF

T2: human integrin β8 swap construct I G I N P (SEQ ID NO:125) (human, UniProt P26012 43-769)
T2 sequence: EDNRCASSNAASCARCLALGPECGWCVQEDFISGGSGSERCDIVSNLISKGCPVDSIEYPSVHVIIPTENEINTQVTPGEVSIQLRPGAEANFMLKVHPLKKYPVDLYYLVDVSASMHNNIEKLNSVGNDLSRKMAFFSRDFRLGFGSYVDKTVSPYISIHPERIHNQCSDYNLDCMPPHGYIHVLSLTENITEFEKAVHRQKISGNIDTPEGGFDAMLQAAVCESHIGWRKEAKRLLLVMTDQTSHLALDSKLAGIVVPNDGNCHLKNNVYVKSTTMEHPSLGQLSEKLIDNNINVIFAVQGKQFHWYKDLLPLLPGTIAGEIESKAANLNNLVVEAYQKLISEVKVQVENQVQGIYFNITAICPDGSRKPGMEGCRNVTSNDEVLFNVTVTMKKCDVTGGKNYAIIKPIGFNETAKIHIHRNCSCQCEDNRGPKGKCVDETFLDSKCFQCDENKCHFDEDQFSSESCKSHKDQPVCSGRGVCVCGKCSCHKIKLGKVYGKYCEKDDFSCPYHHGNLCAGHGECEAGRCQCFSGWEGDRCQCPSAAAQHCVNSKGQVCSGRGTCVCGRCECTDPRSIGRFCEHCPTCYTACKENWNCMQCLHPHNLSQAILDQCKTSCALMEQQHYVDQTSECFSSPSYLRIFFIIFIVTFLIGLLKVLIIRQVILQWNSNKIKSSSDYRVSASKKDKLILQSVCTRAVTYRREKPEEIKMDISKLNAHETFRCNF

T3: human integrin β8 swap construct V R I N S (SEQ ID NO:124) (human, UniProt P26012 43-769)
T3 sequence: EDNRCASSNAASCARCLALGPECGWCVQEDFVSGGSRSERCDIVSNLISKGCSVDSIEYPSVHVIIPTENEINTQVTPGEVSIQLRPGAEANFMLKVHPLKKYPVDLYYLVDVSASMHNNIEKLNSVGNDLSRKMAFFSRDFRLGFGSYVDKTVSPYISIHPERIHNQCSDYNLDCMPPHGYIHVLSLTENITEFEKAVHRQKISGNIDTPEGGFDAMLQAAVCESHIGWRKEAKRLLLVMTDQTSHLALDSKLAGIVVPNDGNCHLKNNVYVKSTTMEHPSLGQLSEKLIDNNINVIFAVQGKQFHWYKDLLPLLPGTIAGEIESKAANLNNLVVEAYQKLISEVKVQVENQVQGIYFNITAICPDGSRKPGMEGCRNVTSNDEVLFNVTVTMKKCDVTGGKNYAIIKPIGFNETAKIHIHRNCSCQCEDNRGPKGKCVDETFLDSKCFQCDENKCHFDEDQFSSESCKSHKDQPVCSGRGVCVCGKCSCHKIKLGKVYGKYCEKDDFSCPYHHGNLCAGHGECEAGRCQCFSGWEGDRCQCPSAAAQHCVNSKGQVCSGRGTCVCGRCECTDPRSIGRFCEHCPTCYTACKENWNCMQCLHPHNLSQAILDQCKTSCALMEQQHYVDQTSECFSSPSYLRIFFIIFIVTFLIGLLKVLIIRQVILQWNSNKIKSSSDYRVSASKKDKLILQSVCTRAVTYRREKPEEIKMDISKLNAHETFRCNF

T4: human integrin β8 swap construct I G I N S (SEQ ID NO:126) (human, UniProt P26012 43-769)
T4 sequence: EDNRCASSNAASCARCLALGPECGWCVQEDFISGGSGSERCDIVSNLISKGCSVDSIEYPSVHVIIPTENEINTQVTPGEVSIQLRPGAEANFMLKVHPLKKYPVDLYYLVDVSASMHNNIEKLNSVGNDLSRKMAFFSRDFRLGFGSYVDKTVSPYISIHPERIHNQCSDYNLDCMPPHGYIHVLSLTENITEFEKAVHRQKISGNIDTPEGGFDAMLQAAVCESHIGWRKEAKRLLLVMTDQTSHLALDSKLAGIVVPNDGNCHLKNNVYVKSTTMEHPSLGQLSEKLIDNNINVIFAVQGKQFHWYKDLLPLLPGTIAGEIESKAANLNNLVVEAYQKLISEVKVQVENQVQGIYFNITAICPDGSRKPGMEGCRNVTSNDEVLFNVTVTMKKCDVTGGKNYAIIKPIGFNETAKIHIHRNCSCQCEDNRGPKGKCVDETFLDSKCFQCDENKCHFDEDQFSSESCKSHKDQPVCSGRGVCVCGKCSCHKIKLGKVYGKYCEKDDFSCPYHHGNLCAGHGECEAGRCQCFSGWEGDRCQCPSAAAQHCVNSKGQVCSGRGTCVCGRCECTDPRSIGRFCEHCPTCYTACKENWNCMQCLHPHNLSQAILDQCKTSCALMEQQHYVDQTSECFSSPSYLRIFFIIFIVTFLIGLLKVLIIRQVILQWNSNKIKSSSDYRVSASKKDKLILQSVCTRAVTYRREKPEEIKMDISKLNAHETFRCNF

B1: 4F1 antibody (antibody, V domains shown)
VH: QVQLQQSGAELVRPGTSVKVSCKASGYAFTNYLIEWVKQRPGQGLEWIGVINPGTGGTNYNKKFKVKATLTADKSSSTAYMQLGGLTFDDSAVYFCAREGNARTYYYAMDYWGQGTSVTVSS
VL: DIEMTQTPASLSASVGETVTITCRASENIYSYLVWYQQKQGKSPQVLVYNAKTLAEGVPSRFSGSGSGTQFSLKINSLQPEDFGSYYCQHHNGTPYTFGGGTKLEIKR
notes: Hybridoma antibody; also called hybridoma clone 4F1
B2: 6B9 antibody (antibody, V domains shown)
VH: QVQLQQSGAELVRPGTSVKVSCKASGYAFTDYLIEWVKQRPGQGLEWIGVINPETGGTNYNAKFKGKATLTADKSSSSAYMQLSSLTSGDSAVYFCAREAGNYIYAMDYWGQGTSVTVSS
VL: DIQMTQSPASLSASVGETVTITCRASVNIYSYLVWYQQKQGKSPQLLVHNAKTLAEGVPSRFSGSGSGTQFSLKINSLQPEDFGSYYCQHHHGTPYTFGGGTKLEIKR
notes: Hybridoma antibody; also called hybridoma clone 6B9

Tests used:
[1] = biological target: T1, mouse integrin β8; experiment: cell surface staining, flow cytometry
[2] = biological target: T2, human integrin β8 swap construct I G I …; experiment: flow cytometry, cell surface staining of β8 amino acid swap constructs
[3] = biological target: T3, human integrin β8 swap construct V R I …; experiment: as above
[4] = biological target: T4, human integrin β8 swap construct I G I …; experiment: as above
[5] = biological target: T1, mouse integrin β8; experiment: as above
[6] = biological target: T5, human integrin αβ8 (αvβ8) expressed on cells (human, UniProt P06756 31-1048); experiment: as above
T5 construct: whole, on cells; β8 transfected into or endogenous on cells, unfixed or formalin fixed; also called human integrin β8; ITGB8
T5 sequence (P06756 31-1048): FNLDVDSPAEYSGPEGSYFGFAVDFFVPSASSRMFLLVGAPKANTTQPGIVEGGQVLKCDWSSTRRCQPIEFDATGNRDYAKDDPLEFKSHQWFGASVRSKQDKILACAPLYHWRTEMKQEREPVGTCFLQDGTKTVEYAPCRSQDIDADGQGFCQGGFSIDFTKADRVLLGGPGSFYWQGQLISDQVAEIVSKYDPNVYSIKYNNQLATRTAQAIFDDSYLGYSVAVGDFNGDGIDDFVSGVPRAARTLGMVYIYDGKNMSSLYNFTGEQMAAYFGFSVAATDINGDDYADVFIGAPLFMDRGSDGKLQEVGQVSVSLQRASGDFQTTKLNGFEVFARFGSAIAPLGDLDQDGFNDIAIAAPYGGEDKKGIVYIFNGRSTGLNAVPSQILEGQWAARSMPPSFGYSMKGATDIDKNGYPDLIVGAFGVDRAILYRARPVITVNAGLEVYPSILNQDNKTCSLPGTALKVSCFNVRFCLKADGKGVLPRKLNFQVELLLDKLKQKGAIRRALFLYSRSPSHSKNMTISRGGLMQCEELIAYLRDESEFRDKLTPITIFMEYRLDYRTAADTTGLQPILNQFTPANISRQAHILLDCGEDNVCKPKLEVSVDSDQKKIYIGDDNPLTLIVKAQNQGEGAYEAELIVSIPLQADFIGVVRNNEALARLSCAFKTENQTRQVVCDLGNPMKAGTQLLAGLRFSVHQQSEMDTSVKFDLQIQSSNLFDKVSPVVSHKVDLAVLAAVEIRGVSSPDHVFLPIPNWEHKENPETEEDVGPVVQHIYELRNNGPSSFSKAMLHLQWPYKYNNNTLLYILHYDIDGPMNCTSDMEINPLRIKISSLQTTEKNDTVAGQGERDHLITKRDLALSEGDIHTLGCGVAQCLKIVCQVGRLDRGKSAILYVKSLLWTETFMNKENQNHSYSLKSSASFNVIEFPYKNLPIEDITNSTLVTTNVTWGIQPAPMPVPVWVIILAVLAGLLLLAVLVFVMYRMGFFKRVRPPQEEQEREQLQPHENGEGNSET

Row | Binder | binding result [1] | % positive [2] [%] | % positive [3] [%] | % positive [4] [%] | % positive [5] [%] | % positive [6] [%]
1 | B1 | no binding | 0 | 92 | 101 | 3 | 100
2 | B2 | no binding | 1 | 102 | 104 | 6 | 100
